Reference: patent publication US20040258695A1, “Transferrin binding peptides and uses thereof” (priority 2003, published 2004)

What was measured:
[1] = target: T1, human transferrin (hTf) (Homo sapiens, UniProt P02787); assay: First M. catarrhalis TbpB N-lobe overlapping peptide library screened with β-galactosidase conjugated hTf (colorimetric); type: binding; conditions: 15 mer peptides with 4-amino acid overlap
T1 construct: purchased Sigma
Description: (§1) Generation of the overlapping peptide libraries representing human transferrin or the TbpB N-lobe regions from different bacteria was by the ‘SPOTSCAN’ method (Genosys Biotechnologies) (13). Essentially the library consisted of linear peptides 15 amino acids in length that were immobilized onto a cellulose membrane using 9-flurorenylmethoxycarbonyl (Fmoc) amino acid-based synthesis. One membrane was used to generate a library of the C-lobe of hTf consisting of ninety-six 15 amino acid peptides with an 11 amino acid overlap. The overlapping hTf peptide represented amino acids 285 to 679 of the intact hTf protein (accession # NP_001054). The first peptide library representing TbpB N-lobe from M. catarrhalis 4223 (accession #AAC34277) consisted of thirty-two 15 amino acid peptides with a 4 amino acid overlap and included N-lobe amino acids 12-421. The amino acid numbers refer to the amino acids in the predicted mature, processed protein (i.e. the N-terminal cysteine is amino acid 1). The second peptide library representing M. catarrhalis 4223 TbpB N-lobe peptides included amino acids 27-421 but with an 11 amino acid overlap.
(§2) Two different methods for labeling proteins for library screening were used. Iron loaded human Tf (Sigma) was labeled by chemical cross-linking (using 3-maleimidobenzoic acid-N-hydroxysuccinimide ester) to a beta-galactosidase (β-gal) reporter enzyme as described elsewhere (18). This was used as a probe for calorimetric detection on the composite peptide library. The second method involved conjugating the truncations of the N-lobe of TbpB from M. catarrhalis 4223 to horseradish peroxidase (HRP). HRP conjugated proteins can be detected by chemiluminescence, providing a much more sensitive screen. The truncations were conjugated to HRP using the Linx HRP Rapid Protein Conjugation Kit (Invitrogen). These labeled fusion proteins were then used as a probe for chemiluminescent detection.
Binding experiments of hTf to the first peptide library was by the calorimetric method (Genosys Biotechnologies). Essentially hTf in blocking solution (10% Blocking buffer (Genosys Biotechnologies), 50 mg/ml sucrose, T-TBS, (0.137 M NaCl, 2.68 mM KCl, 50.4 mM Tris-Base, 0.05% Tween-20, pH8.0) was incubated with the membrane containing the peptide library for 4 hours at room temperature. The membrane was then washed sequentially in T-TBS and PBS before detection of bound beta-galactosidase using 5-bromo-4-chloro-3-indoyl-β-D-galactopyranoside (X-gal). Positive binding was determined by the development of a blue spot.
Initially, an overlapping peptide library representing the TbpB N-lobe of M. catarrhalis was prepared and probed for binding to labeled hTf. This library was comprised of thirty-two 15 mer peptides with a 4-amino acid overlap representing amino acids 12-421 of the mature M. catarrhalis TbpB. The library was screened for binding to β-galactosidase (β-gal) conjugated hTf (β-gal-hTf ) and a number of positive-binding peptides were detected with varying intensity of colored product.

[2] = tested on: TbpB N-lobe from M. catarrhalis 4223 (Mbp fusion truncations); assay: hTf C-lobe overlapping peptide library probed with HRP-labeled TbpB N-lobe truncations (chemiluminescence); type: binding, Moraxella catarrhalis; conditions: for Binding By Truncations, Segments Included 1: TbpB N-lobe segment 1; for Binding By Truncations, Segments Included 1-2: TbpB N-lobe segments 1-2
Description: as §1
TbpB truncations were generated by PCR-based cloning into the pMal expression system (New England BioLabs) as described previously (33). Essentially, amplified tbpB gene segments were subcloned into the pMal-c2 expression vector to generate an in frame fusion with the malE gene. Intact Moraxella catarrhalis 4223 TbpB consisted of amino acids 3-680 where 1 represents the N-terminal cysteine of the mature processed protein. Amino acids 1 and 2 from the mature protein were removed to ease cloning and subsequent expression. The N-terminal half of this gene consisted of amino acids 3 to 421. The truncated TbpB proteins were expressed as maltose binding protein fusions in E. coli ER2507 or ER2508 (for segments 1 and 1-2) and purified by amylose affinity chromatography.
as §2
For increased sensitivity, the TbpB N-lobe truncations from M. catarrhalis were conjugated to HRP for production and detection of chemiluminescent product. The membrane was rinsed with methanol and washed with 3 changes (5 minutes each) of TBS (0.137 M NaCl, 2.68 mM KCl, 50.4 mM Tris-Base, pH=8.0) on a rocking platform. The membrane was blocked by rocking at room temperature in blocking solution consisting of 20 ml of 0.5% Skim milk powder (BioRad) in TBS for 2.5 hours. The membrane was washed with T-TBS 3 times before being incubated with one of the HRP conjugated truncations diluted 1:1000 in skim milk blocking solution for 4 hours at room temperature. The membrane was then washed again 3 times with T-TBS, drained and incubated with 10 ml of Lumiglo mixture (Kirkegaard and Perry Laboratories) for 5 minutes. It was then exposed to X-omat Blue XB-1 X-Ray film (Kodak) for at least 30 seconds before developing. Positive peptides show up as dark spots on a light background.
To plan the truncation experiments, the N-lobe of M. catarrhalis was divided into seven segments with the identified binding peptides at their junctions. […]

[3] = target: T2, β-galactosidase alone (UniProt P00722 2-1024 = β-galactosidase); assay: SPOT peptide library 1 probed with beta-galactosidase alone, colorimetric
T2 construct: Negative control probe for library 1; also called beta-galactosidase
T2 sequence (P00722 2-1024 limits assumed): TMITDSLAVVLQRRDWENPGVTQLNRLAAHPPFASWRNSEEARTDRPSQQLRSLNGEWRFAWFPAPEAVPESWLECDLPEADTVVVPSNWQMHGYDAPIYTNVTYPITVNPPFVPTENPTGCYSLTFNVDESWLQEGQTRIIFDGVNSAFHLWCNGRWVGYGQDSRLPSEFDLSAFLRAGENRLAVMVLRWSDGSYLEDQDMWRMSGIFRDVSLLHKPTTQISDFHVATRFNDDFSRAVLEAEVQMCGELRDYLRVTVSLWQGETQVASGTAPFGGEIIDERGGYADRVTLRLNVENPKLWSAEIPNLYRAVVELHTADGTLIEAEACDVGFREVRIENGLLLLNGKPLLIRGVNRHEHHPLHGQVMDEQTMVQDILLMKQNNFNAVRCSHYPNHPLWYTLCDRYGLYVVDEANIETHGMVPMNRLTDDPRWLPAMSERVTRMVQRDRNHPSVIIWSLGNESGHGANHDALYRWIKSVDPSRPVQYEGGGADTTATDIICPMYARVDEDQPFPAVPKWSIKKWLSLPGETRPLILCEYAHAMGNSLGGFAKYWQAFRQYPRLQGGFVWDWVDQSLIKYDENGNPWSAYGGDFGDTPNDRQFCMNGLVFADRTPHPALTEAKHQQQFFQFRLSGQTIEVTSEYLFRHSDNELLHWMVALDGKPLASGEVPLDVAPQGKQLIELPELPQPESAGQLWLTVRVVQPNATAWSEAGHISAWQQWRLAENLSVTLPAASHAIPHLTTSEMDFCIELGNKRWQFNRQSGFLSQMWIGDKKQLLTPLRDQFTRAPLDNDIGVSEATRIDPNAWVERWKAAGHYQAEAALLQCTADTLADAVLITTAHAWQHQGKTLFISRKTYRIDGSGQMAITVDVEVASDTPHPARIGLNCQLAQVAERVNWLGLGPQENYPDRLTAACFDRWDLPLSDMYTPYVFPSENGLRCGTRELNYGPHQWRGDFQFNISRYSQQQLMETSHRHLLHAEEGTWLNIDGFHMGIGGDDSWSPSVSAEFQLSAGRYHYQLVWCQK

[4] = target: T3, human transferrin (hTf), iron loaded (human, UniProt P02787 20-698); assay: SPOT peptide library 1 of TbpB N-lobe probed with beta-gal-hTf, colorimetric
T3 construct: Used as a labelled probe (beta-gal conjugate for library 1, HRP conjugate for library 2 and the solid-phase assay); also called β-gal-hTf; HRP conjugated hTf
T3 sequence (P02787 20-698 limits assumed): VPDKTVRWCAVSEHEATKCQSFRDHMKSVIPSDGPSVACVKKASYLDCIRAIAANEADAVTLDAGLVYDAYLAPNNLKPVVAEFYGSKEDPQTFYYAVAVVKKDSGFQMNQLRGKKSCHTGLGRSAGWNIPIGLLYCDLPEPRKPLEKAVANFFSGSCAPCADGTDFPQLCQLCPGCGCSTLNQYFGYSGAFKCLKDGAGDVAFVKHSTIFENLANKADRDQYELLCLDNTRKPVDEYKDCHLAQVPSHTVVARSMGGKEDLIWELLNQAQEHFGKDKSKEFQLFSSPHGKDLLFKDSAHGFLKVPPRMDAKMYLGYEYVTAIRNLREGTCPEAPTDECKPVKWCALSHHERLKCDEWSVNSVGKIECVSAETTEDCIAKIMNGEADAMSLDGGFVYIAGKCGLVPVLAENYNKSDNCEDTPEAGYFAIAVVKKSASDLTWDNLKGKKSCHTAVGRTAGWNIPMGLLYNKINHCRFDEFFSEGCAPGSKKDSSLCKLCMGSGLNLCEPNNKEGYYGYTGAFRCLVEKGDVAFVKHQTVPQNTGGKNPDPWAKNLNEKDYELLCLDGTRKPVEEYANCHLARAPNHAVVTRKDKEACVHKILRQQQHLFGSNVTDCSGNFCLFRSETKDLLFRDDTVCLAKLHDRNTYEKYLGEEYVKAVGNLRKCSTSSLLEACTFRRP

[5] = target: T3, human transferrin (hTf), iron loaded; assay: TbpB overlapping peptide library probed with labelled hTf as in Example 1

T1 sequence (P02787 20-698): as the sequence (P02787 20-698 limits assumed) above

Molecule: fmtdvanrrnrfsev (FMTDVANRRNRFSEV; M. catarrhalis) [Peptide 83]
- binding to β-gal-hTf, intensity of colored product [1]: moderately positive

Molecule: kylgeeyvkavgnlr (KYLGEEYVKAVGNLR; listed as Homo sapiens) [Peptide 47, hTf C-lobe library peptide, tail (Cyan)]
- Binding By Truncations, Segments Included 1-6 ([2]; TbpB N-lobe segments 1-6, listed as 20 (Cyan)): bound all of the peptides except the one

Molecule: gpvggvfyngtttak (GPVGGVFYNGTTTAK; M. catarrhalis) [Peptide 80]
- binding to β-gal-hTf, intensity of colored product [1]: strongly positive

Molecule: mgygmalskinlhnr (MGYGMALSKINLHNR; M. catarrhalis) [Peptide 65]
- binding to β-gal-hTf, intensity of colored product [1]: moderately positive

Molecule: chlarapnhavvtrk [Peptide 44]
- Binding By Truncations, Segments Included 1-5 ([2]; TbpB N-lobe segments 1-5, listed as 16 (yellow)): lost reactivity

Molecule: tdcsgnfclfrsetk [Peptide 46]
- Binding By Truncations, Segments Included 1 ([2]; listed as 19 (brown)): loss of binding

Molecule: fsnlqdrhkgnvtkt (FSNLQDRHKGNVTKT; M. catarrhalis) [Peptide 90]
- binding to β-gal-hTf, intensity of colored product [1]: strongly positive

Molecule: gsnvtdcsgnfclfr [Peptide 45]
- Binding By Truncations, Segments Included 1 ([2]; listed as 18 (brown)): loss of binding

Molecule: nipmgllynkinhcr (NIPMGLLYNKINHCR; listed as Homo sapiens) [Peptide 41, hTf C-lobe library peptide, domain 2 (Blue)]
- Binding By Truncations, Segments Included 1-4 ([2]; TbpB N-lobe segments 1-4, listed as 13 (Blue)): lost reactivity

Molecule: agwyygasskdeynr (AGWYYGASSKDEYNR; M. catarrhalis) [Peptide 85]
- binding to β-gal-hTf, intensity of colored product [1]: weakly positive

Molecule: gyygytgafrclvek (GYYGYTGAFRCLVEK; listed as Homo sapiens) [Peptide 43, hTf C-lobe library peptide, domain 2 (Red)]
- Binding By Truncations, Segments Included 1-2 ([2]; listed as 15 (red)): lost reactivity

Molecule: lcmgsglnlcepnnk (LCMGSGLNLCEPNNK; listed as Homo sapiens) [Peptide 42, hTf C-lobe library peptide, domain 2 (Red)]
- Binding By Truncations, Segments Included 1-2 ([2]; listed as 14 (red)): lost reactivity

Molecule: danihgnrfrgsata (DANIHGNRFRGSATA; M. catarrhalis) [Peptide 92]
- binding to β-gal-hTf, intensity of colored product [1]: strongly positive

Molecule: kksasdltwdnlkgk (KKSASDLTWDNLKGK; listed as Homo sapiens) [Peptide 40, hTf C-lobe library peptide, domain 2 (Green)]
- Binding By Truncations, Segments Included 1-3 ([2]; TbpB N-lobe segments 1-3, listed as 12 (green)): lost reactivity

B1: M. catarrhalis TbpB N-lobe peptide danihgnrfrgsata (peptide)
peptide: DANIHGNRFRGSATA
notes: SPOT peptide immobilised on cellulose membrane; also called spot #92
- binding result [3]: no binding
- binding result [4]: binds

B2: M. catarrhalis TbpB N-lobe peptide gpvggvfyngtttak (peptide)
peptide: GPVGGVFYNGTTTAK
notes: SPOT peptide immobilised on cellulose membrane; also called spot #80
- binding result [3]: no binding
- binding result [4]: binds

B3: M. catarrhalis TbpB N-lobe peptide fmtdvanrrnrfsev (peptide)
peptide: FMTDVANRRNRFSEV
notes: SPOT peptide immobilised on cellulose membrane; also called spot #83
- binding result [3]: no binding
- binding result [4]: binds

B4: M. catarrhalis TbpB N-lobe peptide fsnlqdrhkgnvtkt (peptide)
peptide: FSNLQDRHKGNVTKT
notes: SPOT peptide immobilised on cellulose membrane; also called spot #90
- binding result [3]: no binding
- binding result [4]: binds

B5: M. catarrhalis TbpB N-lobe peptide agwyygasskdeynr (peptide)
peptide: AGWYYGASSKDEYNR
notes: SPOT peptide immobilised on cellulose membrane; also called spot #85
- binding result [3]: no binding
- binding result [4]: binds

B6: N. meningitidis TbpB peptide PSRQLPASGKVIYKG (peptide)
peptide: PSRQLPASGKVIYKG
notes: library peptide
- binding result [5]: binds

B7: N. meningitidis TbpB peptide VIYKGVWHFVTDTKK (peptide)
peptide: VIYKGVWHFVTDTKK
notes: library peptide
- binding result [5]: binds

B8: M. catarrhalis TbpB N-lobe peptide mgygmalskinlhnr (peptide)
peptide: MGYGMALSKINLHNR
notes: SPOT peptide immobilised on cellulose membrane; also called spot #65
- binding result [3]: no binding
- binding result [4]: binds

B9: N. meningitidis TbpB peptide FYKHAASEKDFSNKK (peptide)
peptide: FYKHAASEKDFSNKK
notes: library peptide
- binding result [5]: binds
